Among the data in patent US6881834 are activity values, retold here.

Data set [1] has as its target Sp1 (UniProt P08047). The data set is described as follows: cell_activity. Particulars: luciferase induction in Drosophila cells.
Data set [2] concerns the target Sp3 (UniProt Q02447). In words: cell_activity. The settings on record: luciferase induction in Drosophila cells.

Sp3, sequence (Q02447 whole entry): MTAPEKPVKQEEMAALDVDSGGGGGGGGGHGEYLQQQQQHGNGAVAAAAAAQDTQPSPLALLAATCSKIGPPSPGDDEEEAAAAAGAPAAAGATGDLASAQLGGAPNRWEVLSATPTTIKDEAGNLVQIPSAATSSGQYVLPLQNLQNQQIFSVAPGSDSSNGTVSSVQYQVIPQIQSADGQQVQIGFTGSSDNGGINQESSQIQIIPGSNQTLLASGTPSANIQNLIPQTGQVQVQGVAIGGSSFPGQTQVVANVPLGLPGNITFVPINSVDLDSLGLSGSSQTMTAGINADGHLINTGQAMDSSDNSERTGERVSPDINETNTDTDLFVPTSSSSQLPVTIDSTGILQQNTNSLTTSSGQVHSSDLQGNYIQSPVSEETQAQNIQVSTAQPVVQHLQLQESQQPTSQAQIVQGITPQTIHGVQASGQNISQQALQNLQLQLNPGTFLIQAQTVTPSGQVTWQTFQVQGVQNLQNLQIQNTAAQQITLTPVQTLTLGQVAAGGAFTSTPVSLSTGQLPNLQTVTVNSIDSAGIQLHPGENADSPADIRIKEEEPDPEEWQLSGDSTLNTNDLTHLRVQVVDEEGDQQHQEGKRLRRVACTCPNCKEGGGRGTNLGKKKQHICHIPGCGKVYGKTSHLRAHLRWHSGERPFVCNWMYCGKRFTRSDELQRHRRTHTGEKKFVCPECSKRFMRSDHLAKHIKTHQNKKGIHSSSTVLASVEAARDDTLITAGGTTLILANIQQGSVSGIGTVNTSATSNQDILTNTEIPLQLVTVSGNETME
Sp1, sequence (P08047 2-785): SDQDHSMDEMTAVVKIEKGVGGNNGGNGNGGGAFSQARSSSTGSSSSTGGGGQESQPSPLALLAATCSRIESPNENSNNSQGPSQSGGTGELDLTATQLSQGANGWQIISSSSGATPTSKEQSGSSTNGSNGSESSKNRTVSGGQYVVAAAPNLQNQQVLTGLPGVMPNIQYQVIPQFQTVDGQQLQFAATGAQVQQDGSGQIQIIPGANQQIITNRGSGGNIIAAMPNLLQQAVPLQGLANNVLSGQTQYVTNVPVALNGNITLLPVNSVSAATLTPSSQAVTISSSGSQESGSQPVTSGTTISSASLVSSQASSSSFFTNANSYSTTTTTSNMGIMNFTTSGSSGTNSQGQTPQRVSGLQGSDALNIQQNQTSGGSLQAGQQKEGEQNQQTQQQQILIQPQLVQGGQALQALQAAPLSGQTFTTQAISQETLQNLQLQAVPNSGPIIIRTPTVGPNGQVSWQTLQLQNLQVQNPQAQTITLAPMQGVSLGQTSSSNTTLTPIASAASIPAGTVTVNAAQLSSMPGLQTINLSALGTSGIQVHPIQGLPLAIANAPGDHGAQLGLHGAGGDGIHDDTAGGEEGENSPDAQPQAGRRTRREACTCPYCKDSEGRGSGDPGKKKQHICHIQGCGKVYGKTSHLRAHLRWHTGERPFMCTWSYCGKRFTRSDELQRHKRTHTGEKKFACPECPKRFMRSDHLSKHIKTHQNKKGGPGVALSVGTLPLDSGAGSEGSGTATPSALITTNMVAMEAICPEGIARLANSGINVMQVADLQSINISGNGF

For CD11c promoter -196/+30 (CD11c-luc), the figures for the activity in data set [1] and in data set [2] were 19.5 fold and 18.9 fold, respectively.
